Residue numbers refer to the chain shown, from its start. Several values for one entry are separate records, joined by “and”; a condition that tells them apart may be missing. Equal entries are not always repeated. Where two headings read alike, the source gives them in different places.

Assay [1] addresses T1, tumor necrosis factor alpha (TNFα) (human, UniProt P01375 77-233). Kind of assay: Biacore (SPR); MAb captured by immobilised goat anti-human IgG polyclonal antibody, TNFα as analyte. On the technique in general: SPR reads the build-up and loss of mass on a sensor chip optically.
For assay [2], the target named is T1, tumor necrosis factor alpha (TNFα). Description: affinity by IC50 ELISA (so named in paragraph 380). For orientation: An ELISA detects its analyte on a solid surface through an enzyme-linked reagent.
Assay [3] has the same target. Description: affinity by IC50 ELISA (so named in paragraph 380). This is another data set of the same source.
Assay [4] shares this target. Kind of assay: affinity by IC50 ELISA (so named in paragraph 380). This is another data set of the same source.
The target is the same in assay [5]. Kind of assay: affinity by IC50 ELISA (so named in paragraph 380). This is another data set of the same source.
Assay [6] shares this target. Description: affinity by IC50 ELISA (so named in paragraph 380). This is another data set of the same source.
Assay [7] shares this target. Description: cell-based or functional assay.
The target is the same in assay [8]. Kind of assay: affinity by IC50 ELISA (so named in paragraph 380). The source holds these as a separate data set.
Assay [9] shares this target. Kind of assay: affinity by IC50 ELISA (so named in paragraph 380). The source holds these as a separate data set.
Assay [10] shares this target. Kind of assay: affinity by IC50 ELISA (so named in paragraph 380). This is another data set of the same source.

T1 sequence (P01375 77-233 limits assumed): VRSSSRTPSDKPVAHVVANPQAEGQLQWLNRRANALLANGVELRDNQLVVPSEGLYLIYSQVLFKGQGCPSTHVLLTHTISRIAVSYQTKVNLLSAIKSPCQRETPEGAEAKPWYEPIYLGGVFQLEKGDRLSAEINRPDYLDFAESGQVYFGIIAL

What is called Kd is the constant that tells how readily two partners part at equilibrium. High values mean weaker binding, low ones tighter binding. For Humira® (antibody), in [1], the Ka turned out to be 3.31e+10 M⁻¹ and the Kd stood at 0.0303 nM. Moreover, the Affinity in assay [2] amounted to 0.09 nM.

B1: MAb 812 (antibody, V domains shown)
VH: EVQLLESGGGLIQPGGSLRLSCAASGFTVSSNYMSWVRQAPGKGLEWVSVIYSGGRTYYADSVKGRFTISRDSSKNTLYLQMNSLRAEDTAVYYCARNYYGSTYDYWGQGTLVTVSS
VL: EIVLTQSPVTLSVPPGERASLSCRASQNIYTAVAWYQQKPGQAPRLLIYGASTRATGIPARFSGGGSGTDYTLTISSLESEDFAVYHCQQYFSWPLTFGGGTKLEIK
notes: IgG1/kappa, CHO; also called H1192/L308
On to B1, for which the Affinity in assay [3] and in assay [4] was 0.32 nM each time.

B2: MAb 1896 (antibody, V domains shown)
VH: EVQLVESGGGLIQPGGSLRLSCAVSGLNVSRDYMSWVRQAPGKGLEWISVIYRGGATMYADSVKGRFTISRDTSKNTVFLQMSRLKVADTAVYYCARNYYGSTLDYWGQGTLVTVSS
VL: B1 VL with G50N, Y91W, F92H
notes: IgG1/kappa, CHO; also called H1685/L459
As for B2, the Affinity in assay [5], in assay [6] and in assay [3] was 0.08 nM throughout. Further, the “IC50, TNFα cytotoxicity assay (WEHI-13VAR cells)” value (“IC50, TNFα cytotoxicity assay” for short) in assay [7] is 0.79 nM and 0.9 nM.

B3: MAb 815 (antibody, V domains shown)
VH: B1 VH
VL: B1 VL with F92H, S93A
notes: IgG1/kappa, CHO; also called H1192/L311
On to B3, for which the Affinity in [3] and in assay [4] was 0.36 nM throughout.

B4: MAb 1371 (antibody, V domains shown)
VH: B2 VH with L104H
VL: B1 VL with Y91W, F92H
notes: IgG1/kappa, CHO; also called H1596/L332
B4: the Affinity in assay [5], in assay [8] and in [3] was 0.2 nM each time. Besides, in assay [7], the “IC50, TNFα cytotoxicity assay” value was 2 nM and 3.08 nM.

B5: MAb 1852 (antibody, V domains shown)
VH: EVQLLESGGGLIQPGGSLRLSCAASGFTVGNNYMSWVRQAPGKGLEWVSVIYSAGSTYYADSVKGRFIISRDNSKDTVYLQMNSLRVDDTAVYYCARNYYGSTLDYWGQGTLVTVSS
VL: B1 VL with Y91W, F92H
notes: IgG1/kappa, CHO; also called H1729/L332
For B5, the Affinity in [3] and in [9] was 0.41 nM throughout.

B6: MAb 1851 (antibody, V domains shown)
VH: B5 VH with L104F
VL: B1 VL with Y91W, F92H
notes: IgG1/kappa, CHO; also called H1728/L332
Take B6: the Affinity in assay [3] and in [9] was 0.26 nM each time.

B7: MAb 2071 (antibody, V domains shown)
VH: B2 VH with A56V
VL: B1 VL with V9A, P14S, G50N, S52A, Y91W, F92H
notes: IgG1/kappa, CHO; also called H1844/L472
As a reminder, the koff is the first-order rate constant of dissociation. A low value points to slow dissociation. The term kon denotes a measure of how fast the partners come together. Regarding B7, the “IC50, TNFα cytotoxicity assay” value in [7] was 0.03 nM and 0.04 nM. In [1], this molecule yielded a Ka of 1.77e+11 M⁻¹, a Kd of 0.0057 nM, a koff of 3.91e-05 s⁻¹ and a kon of 6.92e+06 M⁻¹ s⁻¹. The Affinity in [10] was determined as 0.01 nM. The same molecule registered an Affinity in assay [3] of 0.01 nM.

B8: MAb 1874 (antibody, V domains shown)
VH: B5 VH with L104M
VL: B1 VL with Y91W, F92H
notes: IgG1/kappa, CHO; also called H1725/L332
B8: the Affinity in assay [3] and in assay [9] was 0.38 nM in each case.

B9: MAb 855 (antibody, V domains shown)
VH: B1 VH
VL: B1 VL with Y91W, F92H
notes: IgG1/kappa, CHO; also called H1192/L332
Regarding B9, the “IC50, TNFα cytotoxicity assay” value in assay [7] is 3.5 nM. The Affinity in [3] and in assay [4] was 0.25 nM throughout.

B10: MAb 1780 (antibody, V domains shown)
VH: B2 VH
VL: B1 VL with Y91W, F92H
notes: IgG1/kappa, CHO; also called H1685/L332
On to B10, for which the Affinity in assay [5], in assay [8] and in assay [3] was 0.23 nM each time. Also, the “IC50, TNFα cytotoxicity assay” value in assay [7] was 1.6 nM and 3.18 nM.

B11: MAb 813 (antibody, V domains shown)
VH: B1 VH
VL: B1 VL with F92M
notes: IgG1/kappa, CHO; also called H1192/L309
Consider B11, for which the Affinity in assay [3] and in [4] was 0.42 nM throughout.

B12: MAb 2090 (antibody, V domains shown)
VH: B2 VH with G54I
VL: B1 VL with V9A, P14S, G50N, S52A, Y91W, F92H
notes: IgG1/kappa, CHO; also called H1813/L472
As to B12, in [7], the “IC50, TNFα cytotoxicity assay” value was determined as 0.09 nM. In assay [1], this molecule had a Ka of 1.2e+11 M⁻¹, a Kd of 0.0084 nM, a koff of 5.42e-05 s⁻¹ and a kon of 6.49e+06 M⁻¹ s⁻¹. This molecule registered an Affinity in assay [10] of 0.02 nM. In [3], this molecule came in with an Affinity of 0.02 nM.

B13: MAb 1777 (antibody, V domains shown)
VH: B2 VH with L104I
VL: B1 VL with Y91W, F92H
notes: IgG1/kappa, CHO; also called H1684/L332
In the case of B13, the “IC50, TNFα cytotoxicity assay” value in assay [7] was found to be 7 nM. In addition, the Affinity in assay [8] and in assay [3] was 0.18 nM in each case.

B14: MAb 1775 (antibody, V domains shown)
VH: B2 VH with L104M
VL: B1 VL with Y91W, F92H
notes: IgG1/kappa, CHO; also called H1687/L332
On to B14, for which, in assay [7], the “IC50, TNFα cytotoxicity assay” value is 6.5 nM. Besides, the Affinity in assay [8] and in [3] was 0.22 nM in each case.

B15: MAb 1850 (antibody, V domains shown)
VH: B5 VH with L104H
VL: B1 VL with Y91W, F92H
notes: IgG1/kappa, CHO; also called H1727/L332
Consider B15, for which the Affinity in assay [3] and in assay [9] was 0.59 nM throughout.

B16: MAb 2060 (antibody, V domains shown)
VH: B2 VH with A56V
VL: B1 VL with V9A, P14S, G50N, Y91W, F92H
notes: IgG1/kappa, CHO; also called H1844/L471
Take B16: the “IC50, TNFα cytotoxicity assay” value in [7] came to 0.14 nM. For the same molecule, the Affinity in assay [10] and in assay [3] was 0.02 nM throughout.

B17: MAb 1895 (antibody, V domains shown)
VH: B2 VH with L104H
VL: B1 VL with G50N, Y91W, F92H
notes: IgG1/kappa, CHO; also called H1596/L459
B17: the Affinity in assay [5] and in assay [3] was 0.09 nM throughout. For the same molecule, in assay [7], the “IC50, TNFα cytotoxicity assay” value amounted to 0.89 nM.

Values taken from patent US20080267974A1 (SCHERING, published 2008).
